# Measurements taken from the DeepSol protein solubility set.
# Experiment: soluble on expression in E. coli; label from the status in PepcDB or PDB records
row,Sequence,soluble on expression in E. coli
1,MGNNSSAQSSTPSLPIDSTFNLPSPLPSWPSGEGFAKGRIDLGGLEVSQVDTFNKVWTVYEGGQDNLGATFFEPSSVPEGFSILGFYAQPNNRKLFGWTLVGKDLSGDSLRPPVDYLLLWSGKSTKVENNKVETGYFWQPVPPDGYNAVGLIVTTSDEKPPLDKIRCVRSDLTDQSEPDALIWETNGFSVSSSKPVNRGTQASGVSVGTFFSNSPNPALPCLKNNNFDFSCMPSKPQIDALFQTYAPWIYFHKDEKYLPSSVNWFFSNGALLYKKGDESNPVPVEPNGLNLPQGEFNDGLYWLDLPVASDARKRVQCGDLQSMEVYLHIKPVFGGTFTDIAVWMFYPFNGPSRAKLKAASIPLGRIGEHIGDWEHFTLRISNFSGKLHRMYLSQHSGGSWADASEIEFQGGGNKPVAYASLNGHAMYSKPGLVLQGKDNVGIRNDTGKSEKVIDTAVRFRVVAAEYMRGELEEPAWLNYMRHWGPKIDYGHENEIRGVEKIMVGESLKTTFRSAIKGLPNEVFGEEGPTGPKLKRNWLGDEV,not soluble
2,MRRRQRRQSSNIFHMLTKNQIVELREAFNFMDVNSDTFVDRGDLENFLASIGSPFSESEIDEMMAEGGDSMTYMLFLTMIGERLSCTDSEKSIFNALKEFDDNGDGTIDEKVLREWLTEKGDRMADEDVNLLLRDCVENGRIDCRSLTTKMKYGEIINE,not soluble
3,MGSDKIHHHHHHMRLIGLTDLHNRIINFDKLLRYKPDAILISGDFTKCSFAKSANQNDSFEVITEQDTRIIDFLENLNNKIKVFIIPGNWENLDTIQKMNESGLNIDEKLVKFHDTIFIGLGGSNKTPICSPNEYSEDEIYERFIKILKNEKTDVKNNFILLSHVPPKDTMADRCEAGHVGSSAVRKIIEEFKPVLCACGHVHESRSIDKIGNTLIVNPSSTGFFIYDTKTKNLEIHDL,not soluble
4,MFAERLKELRKREAGLTQERLAMQLGMAKTTLASYEQGKRQPDLETLSKIADRFSVTTDYLLGKNGTPKWATKKDTIDLKDFLEANEGSMTYGGEDLTEEEKQQVRVAMATIFWKRHKHD,not soluble
5,MNLLEKTRKINAMLQKAAGRPVNFKEMAETLCEVIEANVFVVSRRGKLLGFAIKQSIENERMKRMLEERQFPEEYTKNLFNITETSPNIDINSEYTAFPVENRDLFKTGLTTIVPINGGGERLGTLILSRLDREFDNDDLILAEYGATVVGMEILREKAEEIEEEARSKAVVQMAISSLSYSELEAIEHIFEELDGTEGLLVASKIADRVGITRSVIVNALRKLESAGVIESRSLGMKGTYIKVLNDKFLSELEKLKSS,not soluble
6,GGVVVTPRAPYIHDLDGLPMAWDLVEWPIYTYRAKNDARLAIVSSSRGCKQQCSFCSQQLFWSQSWRARSAENFVAELEMLHTVHGVQVAMLSDEIPTFDRQRWVRILDLMIERQVPVKLLMETRVDDILRDADIMDRYREGGVEHIYVGVEAGTQETLDLFKKDTQVEQSKQAIDLINNADIVSETSFVLGMPDDTPESIAQTIELAKHYNPDMAFFLAIAPWPYAELYPQLEEYVATKDYRKYNLVEPVIKPKHMTLEELERQLGKASQQFFMH,not soluble
7,MSQPLLAVNGLMMRFGGLLAVNNVSLELREREIVSLIGPNGAGKTTVFNCLTGFYKPTGGTITLRERHLEGLPGQQIARMGVVRTFQHVRLFREMTVIENLLVAQHQQLKTGLFSGLLKTPAFRRAQSEALDRAATWLERIGLLEHANRQASNLAYGDQRRLEIARCMVTQPEILMLDEPAAGLNPKETKELDELIAELRNHHNTTILLIEHDMKLVMGISDRIYVVNQGTPLANGTPEEIRNNPDVIRAYLGEA,soluble
8,MAHHHHHHMCACTYSYPRAAHGHDGTTSQLFTRKRIFTLPQLHRSYFLKLLFVQKPLSNPLLAVSLHLTFHQHHSLLGPSVACRAHKHMINYYAKCRARNHTEGEGRCLAFRGMY,not soluble
9,MILNILRLPHADEPTTSQSVQDYPLVHFSPRRHQKFRTIISVGDSDVIKDSSLTDEELYNIIHASPIARKSSTVSSTDSGYLGSSGASSSCVRSREGSTVSSTITVERTRRGGSTASSEPDSVADSEGAGSYSSFSSIASTASRMLGRAADCLVLMTKRNGWSGDAGSPSDEKGSSLDAQSWTTAIQSALMPVTPQSSVVGGKRIDKLKVPTEGKTRPPY,not soluble
10,NTKPENDLERAKRKNERAKARCVGITFETRPDYAREEHIREMLRFGGTKVELGVQSLYDDVLERIKRGHGVKEVAEATRLLRDSAFKVGYHIMPGLPGSSFERDLRMFRELFENDSFKPDYLKIYPTLVVEGTELYEMWKRGEYEPYTTEEVVELIVMAKRRFPE,not soluble
